Results on 1 substance are retold here after patent publication US20230287402A1.

This experiment has as its target GFP-60mer nanocages. The experiment can be described thus: absorbance at 490 nm and 570 nm of the complex purified by size exclusion chromatography.

For “GBP-mScarlet, purified fusion of the anti-GFP nanobody and mScarlet (VHH)”, the ratio GFP/mScarlet in the purified complex is 0.95.
